Data published in patent publication US12233115B2, “Long-acting parathyroid hormone” (Extend Biosciences, Inc., priority 2022, dated 2025).
Marks after values point to notes of the source that are not given here.

What was measured:
[1] = Single dose pharmacokinetics of EXT608 in healthy humans; type: in vivo; details: human
Description: EXT608 vastly improves the serum half-life in humans in a dose-dependent manner. Sterile EXT608 formulations were prepared at a concentration of 0.4 mg/ml in 10 mM sodium acetate buffer pH=5.5, 4.5% mannitol, and 0.25% Polysorbate 80 and filled into sterile vials. Healthy human participants were administered EXT608 by subcutaneous injection in the abdomen at doses of 0, 36, 108, 216, or 324 micrograms (n=3).
Pharmacokinetics: 4 ml Blood samples were collected at −24, −1, 0.5, 1, 2, 4, 8, 12, 18, 24, 36, 48, and 72 hours relative to dosing as well as on Days 5, 7, 14, 21, and 28 after dosing. They were processed to K2EDTA plasma. […] Pharmacokinetic parameters were calculated for each individual using Kinetica software (ThermoFisher Scientific, Waltham, MA), and the parameter means and standard deviations are given in Table 12. For the lower doses (36, 108, and 216 μg), an accurate elimination half-life (t1/2) could not be determined because of limited timepoints with EXT608 concentrations above the lower limit of quantitation.

[2] = Repeat dose pharmacokinetics of EXT608 in male and female rats; type: in vivo; details: rat; for Cmin: 0-24 h; for AUC(0-t): sc, read-out: AUC0-24 h
Description: 21-Day Experiment: EXT608 was formulated in 20 mM sodium acetate pH=5.5 buffer with 0.8% sodium chloride. In a repeat dose toxicokinetic study, groups of 18 rats (9 males+9 females) were subcutaneously dosed daily at a volume of 0.5 ml/kg with either 14.2 μg/kg or 70 μg/kg of EXT608. On Day 21, blood samples (˜0.5 ml) were collected at t=0 (pre-dose), 0.5, 1, 3, 8, 24, 32, 48, and 72 h with each timepoint being collected from one of three cohorts of 3 male and 3 female animals. Each blood sample was collected from the jugular vein into tubes containing K2EDTA and manually inverted several times. Blood samples were kept on wet ice pending centrifugation. Samples were centrifuged (˜2700 g, ˜10 min, ˜5° C.) within 1 hour of collection. Plasma was recovered and divided evenly into duplicate aliquots and frozen. 90-Day Experiment: EXT608 was formulated in 20 mM sodium acetate pH=5.5 buffer with 0.8% sodium chloride and 0.1% Polysorbate 80. In a repeat dose toxicokinetic study, groups of 18 rats (9 males+9 females) were subcutaneously dosed daily at a volume of 0.5 ml/kg with either 1, 3, or 10 μg/kg of EXT608. On Day 90, blood samples (˜0.5 ml) were collected at t=0 (pre-dose), 0.5, 1, 3, 8, 24, 32, 48, and 72 h with each timepoint being collected from one of three cohorts of 3 male and 3 female animals. Plasma was prepared as described above for the 21-Day experiment. […] Group-averaged EXT608 levels as a function of time are shown in FIG. 13 for the last dose administration after either 21 days of daily dosing (14.2 and 70 μg/kg) or 90 days of daily dosing (1, 3, and 10 μg/kg). Surprising, the PK profiles changed as a function of dose level. […] Pharmacokinetic parameters were determined from the plasma concentration versus time data (Table 6) by a non-compartmental extravascular administration model with uniform weighting using Phoenix® WinNonlin® Version 6.4 (Certara L.P. (Pharsight), Princeton, NJ). Pharmacokinetic analysis was performed on data collected from t=0 to 72 h following the last administered dose. […] The Cmax/Cmin ratio represents the peak-to-trough ratio of EXT608 concentration that was observed during the dosing period. […] Without being bound by theory, the low peak-to-trough ratios observed at low doses could be the result of a slower rate of absorption of EXT608 from the subcutaneous space into circulation. A low peak-to-trough ratio is desirable in many therapeutic applications, including parathyroid hormone replacement therapy. It allows dosing at levels close to the ideal efficacious dose without going too high where toxicity might be observed or too low where the efficacy is reduced.

[3] = in vivo, 36 ug, single 36 μg SC
[4] = in vivo, 108 ug, single 108 μg SC
[5] = in vivo, 216 ug, single 216 μg SC
[6] = in vivo, 324 ug, single 324 μg SC
[7] = in vivo, 1 ug/kg, daily SC 1 μg/kg, 90 days

C=C1CC[C@H](OCCCNC(=O)CCOCCOCCOCCOCCOCCOCCOCCOCCOCCOCCOCCOCCOCCOCCOCCOCCOCCOCCOCCOCCOCCOCCOCCOCCOCCOCCOCCOCCOCCOCCOCCOCCOCCOCCOCCOCCNC(=O)CCN2C(=O)CC(SC[C@H](NC(=O)[C@H](Cc3ccccc3)NC(=O)[C@H](CC(N)=O)NC(=O)[C@H](Cc3c[nH]cn3)NC(=O)[C@@H](NC(=O)[C@H](CC(=O)O)NC(=O)[C@H](CCC(N)=O)NC(=O)[C@H](CC(C)C)NC(=O)[C@H](CCCCN)NC(=O)[C@H](CCCCN)NC(=O)[C@H](CCCNC(=N)N)NC(=O)[C@H](CC(C)C)NC(=O)[C@H](Cc3c[nH]c4ccccc34)NC(=O)[C@H](CCC(=O)O)NC(=O)[C@@H](NC(=O)[C@H](CCCNC(=N)N)NC(=O)[C@H](CCC(=O)O)NC(=O)[C@H](CCSC)NC(=O)[C@H](CO)NC(=O)[C@H](CC(N)=O)NC(=O)[C@H](CC(C)C)NC(=O)[C@H](Cc3c[nH]cn3)NC(=O)[C@H](CCCCN)NC(=O)CNC(=O)[C@H](CC(C)C)NC(=O)[C@H](CC(N)=O)NC(=O)[C@H](Cc3c[nH]cn3)NC(=O)[C@H](CCSC)NC(=O)[C@H](CC(C)C)NC(=O)[C@H](CCC(N)=O)NC(=O)[C@@H](NC(=O)[C@H](CCC(=O)O)NC(=O)[C@H](CO)NC(=O)[C@@H](NC(=O)[C@@H](N)CO)C(C)C)[C@@H](C)CC)C(C)C)C(C)C)C(N)=O)C2=O)C/C1=C/C=C1\CCC[C@]2(C)[C@@H]([C@H](C)CCCC(C)(C)O)CC[C@@H]12 (stereo partly drawn) [EXT608]
tlast ([1]; single 36 μg SC): 24 h
tlast ([1]; single 108 μg SC, 48 h (n = 1) or 72 h (n = 2)): 48/72^a
tlast ([1]; single 216 μg SC): 48/72/120
tlast ([1]; single 324 μg SC): 168 h
AUC(0-t) [1, 3]: 5.9 ± 2.7 ng·h/mL
Cmax [1, 3]: 0.49 ± 0.27 ng/mL
Tmax [1, 3]: 3.3 ± 1.2 h
AUC(0-t) [1, 4]: 29.2 ± 8.4 ng·h/mL
Cmax [1, 4]: 1.2 ± 0.3 ng/mL
Tmax [1, 4]: 5.3 ± 2.3 h
AUC(0-t) [1, 5]: 41.7 ± 17.4 ng·h/mL
Cmax [1, 5]: 1.3 ± 0.5 ng/mL
Tmax [1, 5]: 4 h
AUC(0-inf) [1, 6]: 151 ± 16 ng·h/mL
AUC(0-t) [1, 6]: 118 ± 11 ng·h/mL
Cmax [1, 6]: 5 ± 2 ng/mL
MRT [1, 6]: 105 ± 18 h
Tmax [1, 6]: 2.7 ± 1.2 h
half-life [1, 6]: 90 ± 13 h
Vd/F ([1]; in vivo, 324 ug, single 324 μg SC, read-out: VZ/F): 280 ± 42 L
CL/F ([1]; plasma, 324 ug, single 324 μg SC): 36.7 mL/min
Tmax [2, 7]: 1 h
half-life ([2]; in vivo, repeated daily SC dosing, across doses 1-70 μg/kg, read-out: t1/2 of elimination): 10.4 to 13.8 h
Cmin ([2]; daily SC 1 μg/kg, 90 days): 0.299 ng/mL
Cmin ([2]; daily SC 3 μg/kg, 90 days): 0.875 ng/mL
Cmin ([2]; daily SC 10 μg/kg, 90 days): 1.56 ng/mL
Cmin ([2]; daily SC 14.2 μg/kg, 21 days): 2.35 ng/mL
Cmin ([2]; daily SC 70 μg/kg, 21 days): 5.92 ng/mL
AUC(0-t) [2, 7]: 11.2 ng·h/mL
AUC(0-t) ([2]; in vivo, 3 ug/kg, daily SC 3 μg/kg, 90 days): 29.9 ng·h/mL
AUC(0-t) ([2]; in vivo, 10 ug/kg, daily SC 10 μg/kg, 90 days): 93.2 ng·h/mL
AUC(0-t) ([2]; in vivo, 14.2 ug/kg, daily SC 14.2 μg/kg, 21 days): 149 ng·h/mL
AUC(0-t) ([2]; in vivo, 70 ug/kg, daily SC 70 μg/kg, 21 days): 875 ng·h/mL
